# Laboratory results published in patent US20200405889A1.
# Where no end group is shown, it is not given here. [ ]: non-standard residue; d: D form. The star is where a group is joined. maleimido‑mono‑amide‑DOTA = O=C(O)CN1CCN(CC(=O)O)CCN(CC(=O)NCCN2C(=O)CC(*)C2=O)CCN(CC(=O)O)CC1
# What was measured:
# [1] = biological target: human CCR2 (hCCR2) (human) (UniProt P41597); experiment: autoradiography of ^64Cu-DOTA-ECL1i on human COPD lung tissue sections, co-incubation with 500-fold non-radioactive ECL1i
# [2] = biological target: mouse chemokine (C-C motif) receptor 2 (CCR2) (mouse) (UniProt P51683); experiment: cell-based or functional assay
# Chain of mouse chemokine (C-C motif) receptor 2 (CCR2) (mouse) (P51683 whole entry): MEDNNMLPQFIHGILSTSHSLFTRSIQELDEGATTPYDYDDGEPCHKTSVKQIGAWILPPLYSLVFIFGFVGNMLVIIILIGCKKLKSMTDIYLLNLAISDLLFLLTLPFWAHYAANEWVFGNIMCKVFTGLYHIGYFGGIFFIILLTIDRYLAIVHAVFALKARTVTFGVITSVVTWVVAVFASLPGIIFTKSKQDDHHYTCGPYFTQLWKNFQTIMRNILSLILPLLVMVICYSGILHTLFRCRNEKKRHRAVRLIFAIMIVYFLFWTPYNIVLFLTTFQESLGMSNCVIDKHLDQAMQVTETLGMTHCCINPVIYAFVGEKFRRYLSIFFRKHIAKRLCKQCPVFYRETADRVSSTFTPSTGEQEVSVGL
# Chain of human CCR2 (hCCR2) (human) (P41597 whole entry): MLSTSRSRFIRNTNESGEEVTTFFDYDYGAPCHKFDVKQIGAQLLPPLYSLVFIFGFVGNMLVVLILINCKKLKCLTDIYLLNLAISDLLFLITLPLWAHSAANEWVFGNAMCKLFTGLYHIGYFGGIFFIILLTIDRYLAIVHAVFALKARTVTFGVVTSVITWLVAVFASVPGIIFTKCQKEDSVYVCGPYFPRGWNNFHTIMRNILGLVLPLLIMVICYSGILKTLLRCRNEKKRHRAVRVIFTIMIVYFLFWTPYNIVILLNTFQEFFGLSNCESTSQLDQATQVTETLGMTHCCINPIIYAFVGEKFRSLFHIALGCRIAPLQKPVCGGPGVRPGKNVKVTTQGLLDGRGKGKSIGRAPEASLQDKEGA
percent of autoradiography signal blocked [1] [%],"graft/native lung uptake ratio, PET 1 hour after transplantation, wild type B6 lung into wild type B6 recipient [2]","graft/native lung uptake ratio, PET at 1 hour with co-injected non-radiolabeled ECL1i [2]","graft/native lung uptake ratio, PET at 4 hours, wild type into wild type [2]","graft/native lung uptake ratio, PET at 24 hours, wild type into wild type [2]",lung PET uptake 24 h after intratracheal LPS [2] [% ID/g],lung PET uptake 24 h after intratracheal PBS [2] [% ID/g],lung PET uptake 48 h post-LPS [2] [% ID/g],lung PET uptake 144 h post-LPS [2] [% ID/g],lung PET uptake after low dose LPS [2] [% ID/g],lung PET uptake in LPS-treated mice co-injected with excess non-radioactive ECL1i (blocked) [2] [% ID/g],lung PET uptake in naive mice [2] [% ID/g],"percent of PET signal in grafts blocked by competitive receptor blocking, wild type recipients [2] [%]",Binder
54.5,–,–,–,–,–,–,–,–,–,–,–,–,[dL]G[dT][dF][dL][dK][dC] [ECL1i peptide d(LGTFLKC)]
–,3.71,1.17,4.13,3.73,4.43,0.99,1.04,1.29,1.82,0.63,0.39,75,[dL]G[dT][dF][dL][dK][dC](maleimido‑mono‑amide‑DOTA) (also: DOTA chelates 64Cu) [^64Cu-DOTA-ECL1i]
